B1: anti-DLL3 trispecific protein 3A09 (protein, part only; not given: CD3 binder and albumin binder, part only)
chain, part: EVQLVESGGGLVQPGGSLTLSCAASGSSVSFLSMAWYRQAPGKKRELVAGISADGSVDYIDSVKGRFTISRDNAKNSVYLQMNSLRAEDTAVYYCYAYRWTTRYIYWGQGTLVTVSSGGGGSGGGSGGGGSGGGSHHHHHH
B2: anti-DLL3 trispecific protein 4C03 (protein, part only; not given: CD3 fragment and albumin sdAb, part only)
chain, part: B1 chain, part with S28K, L32M, A53V, V57T, T101R, I105T
B3: anti-DLL3 trispecific protein 4D05 (protein, part only; not given: anti-CD3 fragment and anti-albumin domain, part only)
chain, part: B1 chain, part with V29S, V57T, D58V, Y104R, I105T
B4: anti-DLL3 trispecific protein 4C02 (protein, part only; not given: CD3 fragment and albumin sdAb, part only)
chain, part: B1 chain, part with S28K, V57T, D58T, Y104F, I105T
B5: anti-DLL3 trispecific protein 3A011 (protein, part only; not given: CD3 binder and albumin binder, part only)
chain, part: B1 chain, part with M34L, A53T, V57T, T101R, I105T
B6: anti-DLL3 trispecific protein 4C06 (protein, part only; not given: CD3 fragment and albumin sdAb, part only)
chain, part: B1 chain, part with G26N, F31K, V57T, D58A, T101S, I105T
B7: anti-DLL3 trispecific protein 4C010 (protein, part only; not given: CD3 binder and albumin binder, part only)
chain, part: B1 chain, part with S28K, L32M, V57T, Y104L, I105T
B8: anti-DLL3 trispecific protein 2C07 (protein, part only; not given: anti-CD3 and anti-albumin domains, part only)
chain, part: EVQLVESGGGLVQPGGSLTLSCVASGSTSSINAMAWYRRAPGKQRELVAGISSDGSKVYADSVKGRFTISRDNAKNSVYLQMNSLRAEDTAVYYCYYFRSVSGSSMRYWGQGTLVTVSSGGGGSGGGSGGGGSGGGSHHHHHH
B9: anti-DLL3 trispecific protein 2D03 (protein, part only; not given: anti-CD3 and anti-albumin domains, part only)
chain, part: B8 chain, part with S27K, A35G, S100T, S104V
B10: anti-DLL3 trispecific protein 1B010 (protein, part only; not given: CD3 fragment and albumin sdAb, part only)
chain, part: B8 chain, part with S30R, A35G, S100T, V101K
B11: anti-DLL3 trispecific protein 1D06 (protein, part only; not given: anti-CD3 fragment and anti-albumin sdAb, part only)
chain, part: B8 chain, part with A35G, G55N, S100T, S102H
B12: anti-DLL3 trispecific protein 2H010 (protein, part only; not given: CD3 fragment and albumin sdAb, part only)
chain, part: B8 chain, part with A35G, V48A, V58L, S100T
B13: anti-DLL3 trispecific protein 2C04 (protein, part only; not given: anti-CD3 fragment and anti-albumin sdAb, part only)
chain, part: B8 chain, part with I31R, A35G, V58L, S100T, S102L
B14: anti-DLL3 trispecific protein 2D04 (protein, part only; not given: CD3 binder and albumin binder, part only)
chain, part: B8 chain, part with M34V, A35G, A60R, S100T, S102Q
B15: anti-DLL3 trispecific protein 2C06 (protein, part only; not given: CD3 binder and albumin binder, part only)
chain, part: B8 chain, part with S29N, A35G, A60K, F98Y, S100T
B16: anti-DLL3 trispecific protein 1A010 (protein, part only; not given: anti-CD3 fragment and anti-albumin domain, part only)
chain, part: B8 chain, part with M34Y, A35G, S100T, S102Y
B17: anti-DLL3 trispecific protein 2F09 (protein, part only; not given: anti-CD3 fragment and anti-albumin domain, part only)
chain, part: B8 chain, part with V58L, S100T
B18: anti-DLL3 trispecific protein 1H07 (protein, part only; not given: anti-CD3 fragment and anti-albumin sdAb, part only)
chain, part: B8 chain, part with M34F, A35G, A60S, S100T
B19: anti-DLL3 trispecific protein 2B02 (protein, part only; not given: CD3 binder and albumin binder, part only)
chain, part: B8 chain, part with S100T, V101K
B20: anti-DLL3 trispecific protein 1G01 (protein, part only; not given: CD3 binder and albumin binder, part only)
chain, part: B8 chain, part with D61E, S100T, S104A
B21: anti-DLL3 trispecific protein 2H04 (protein, part only; not given: anti-CD3 fragment and anti-albumin domain, part only)
chain, part: B8 chain, part with A35G, G55T, S100T, S105Y
B22: anti-DLL3 trispecific protein 1A03 (protein, part only; not given: CD3 fragment and albumin sdAb, part only)
chain, part: B8 chain, part with S100T, M106S
B23: anti-DLL3 trispecific protein 1F010 (protein, part only; not given: anti-CD3 fragment and anti-albumin sdAb, part only)
chain, part: B8 chain, part with S30R, A35G, A60K, S100T
B24: anti-DLL3 trispecific protein 1H011 (protein, part only; not given: anti-CD3 and anti-albumin domains, part only)
chain, part: B8 chain, part with M34I, A35G, A60N, S100T, V101Q
B25: anti-DLL3 trispecific protein 2G07 (protein, part only; not given: anti-CD3 and anti-albumin domains, part only)
chain, part: B8 chain, part with S100T, S102Q
B26: anti-DLL3 trispecific protein 1G011 (protein, part only; not given: CD3 binder and albumin binder, part only)
chain, part: B8 chain, part with R99K, S100T
B27: anti-DLL3 trispecific protein 2D06 (protein, part only; not given: anti-CD3 and anti-albumin domains, part only)
chain, part: B8 chain, part with A35G, A60S, S100T, M106S
B28: anti-DLL3 trispecific protein 2C09 (protein, part only; not given: anti-CD3 and anti-albumin domains, part only)
chain, part: EVQLVESGGGLVQPGGSLTLSCVPSGSTSNINAMGWYRRAPGKQRELPAGISSDGTKIYADSAKVPFTITRDNAKNSVYLQMNSLRAEDTAVYYCYYFRTVSGTSMRYWGQGTLVTVSSGGGGSGGGSGGGGSGGGSHHHHHH

Results on 28 molecules are retold here after US20200095340A1.

Residue numbers refer to the chain shown, from its start.

In the assay the target is biotinylated human DLL3 protein expressed as a human IgG1 fusion protein (human) (UniProt Q9NYJ7). As to the kind of experiment: Octet BLI; biotinylated huDLL3-IgG1 fusion on streptavidin tips; single 50 nM; conditioned medium. On the technique in general: In BLI a coated tip is dipped into the sample, and binding shifts an interference pattern.
biotinylated human DLL3 protein expressed as a human IgG1 fusion protein (human), sequence (Q9NYJ7 other isoform, or with tags, fused parts or gaps): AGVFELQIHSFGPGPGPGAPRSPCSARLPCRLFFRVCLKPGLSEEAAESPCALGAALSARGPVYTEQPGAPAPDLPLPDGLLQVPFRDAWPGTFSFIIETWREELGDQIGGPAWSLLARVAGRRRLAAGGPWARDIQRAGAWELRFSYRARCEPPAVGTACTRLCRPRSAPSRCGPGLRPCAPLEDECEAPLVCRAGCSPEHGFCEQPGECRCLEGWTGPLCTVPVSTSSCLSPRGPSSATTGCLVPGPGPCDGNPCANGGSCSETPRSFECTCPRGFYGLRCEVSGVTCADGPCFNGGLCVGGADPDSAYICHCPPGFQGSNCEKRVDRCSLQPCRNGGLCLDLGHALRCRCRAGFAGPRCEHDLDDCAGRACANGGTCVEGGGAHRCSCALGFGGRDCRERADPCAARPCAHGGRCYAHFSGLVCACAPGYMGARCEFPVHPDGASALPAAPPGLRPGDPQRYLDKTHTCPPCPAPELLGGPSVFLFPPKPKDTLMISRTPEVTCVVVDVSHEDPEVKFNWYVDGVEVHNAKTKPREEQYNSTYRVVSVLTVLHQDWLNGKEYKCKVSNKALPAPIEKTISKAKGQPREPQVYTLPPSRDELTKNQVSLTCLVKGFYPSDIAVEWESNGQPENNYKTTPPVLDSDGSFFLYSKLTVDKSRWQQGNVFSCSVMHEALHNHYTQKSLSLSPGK
B1 had a Kd of 6.3 nM. That is a single-digit nanomolar value.

B2 gave a dissociation constant (Kd) of 6.6 nM.

Molecule B3 yielded a Kd of 6.5 nM.

On to B4, for which the Kd turned out to be 6.8 nM.

Regarding B5, the Kd is 6.8 nM.

B6 returned a Kd of 6.8 nM. That is a single-digit nanomolar value.

Take B7: the Kd was determined as 7 nM. This Kd and that of the molecule before are within 1.5-fold of each other.

As to B8, the Kd came out at 6.2 nM.

B9 had a Kd of 6.8 nM.

Consider B10, for which the dissociation constant (Kd) was 6.8 nM. This counts as single-digit nanomolar.

The molecule B11 came in with an equilibrium dissociation constant (Kd) of 6.8 nM.

Molecule B12 showed a dissociation constant (Kd) of 6.4 nM.

Take B13: the Kd was 6.8 nM.

For the molecule B14, the Kd came to 6.2 nM.

Take B15: the Kd was found to be 6.7 nM.

B16 had a dissociation constant Kd of 6.5 nM.

As for B17, the equilibrium dissociation constant (Kd) is 6.5 nM.

Take B18: the Kd was found to be 6.2 nM.

The molecule B19 came in with a Kd of 6.6 nM.

With B20, the equilibrium dissociation constant (Kd) turned out to be 6.6 nM.

On to B21, for which the Kd was found to be 6.3 nM.

B22 gave a Kd of 6.3 nM.

Take B23: the dissociation constant Kd was determined as 6.3 nM.

B24 came in with a dissociation constant Kd of 6.2 nM.

The molecule B25 returned a Kd of 6.5 nM. The Kd values of the last two molecules are within 1.5-fold of each other.

B26 gave a Kd of 6.8 nM.

In turn, B27 showed a dissociation constant Kd of 6.6 nM.

On to B28, for which the Kd was 6.4 nM.

As a reminder, the Kd is the free concentration of one partner at which half of the binding sites on the other are occupied at equilibrium, for simple one-to-one binding. A lower Kd goes with higher affinity.
